From the RNAGym collection of RNA variant scans (doi:10.1073/pnas.2313332121)
Variants at the floor of the assay were thinned out.

B1: TPR 5TU (parent)
chain: GGAUCUUCUCGAUCUAACAAAAAAGACAAAUCUGCCACAAAGCUUGAGAGCAUCUUCGGAUGCAGAGGCGGCAGCCUUCGGUGGCGCGAUAGCGCCAACGUUCUCAACUAUGACACGCAAAACGCGUGCUCCGUUGAAUGGAGUUUAUCAUG

Variants of: B1
Experiment: polymerase ribozyme fitness, log enrichment relative to wild type (log ratio); higher = more active; in vitro selection for triplet polymerase activity
Outline: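 Streptavidin-bead capture of gel-excised extended constructs, followed by RT-PCR, closed a single triplicate in vitro selection round. That round began by annealing PCR-built, transcribed mutant libraries of each subunit of a heterodimeric triplet polymerase ribozyme with a biotinylated primer, the partner subunit and triplets, then incubating them frozen at −7 °C. After Illumina sequencing of inputs and outputs, genotypes needed ≥10 input reads and ≥1 read per output. Fitness is the base-2 logarithm of genotype enrichment over wild-type enrichment, using inverse-variance-weighted replicate averages.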

For GGAUCUUGUCAAUCUAACCAAAAAGACAAAUCUGCCACAAAGCUUGAGAACAUCUUCGGAUGCAGAGGAAGCAGCCUUCGGUGGCGCGAUAGUGCCAACGUUCUCAACUAUGACACGCAAAACGCGUGCUCCGUUGAAUGGAGUUUAUCAUG [C8G G11A A19C G50A C69A G70A C93U], which “polymerase ribozyme fitness (log ratio)” value is on record?
Its value is at most -4.2.

Which “polymerase ribozyme fitness (log ratio)” value does the source give for GGAUCUUGUCGAUCUAACAAAAAAGACAAAACUGCCACAAAGCUUGAGCGCAACUUCGGAUGCAGAGGCGGCAGCCUUCGGUGACGCGAUAGCGCCAACGUUCUCAACUAUGACACGCUACACGCGUGCUCCGUUGUAUGGAGUUUAUCAUG [C8G U31A A49C U53A G84A A119U A121C A137U] here?
The value was at most -4.2.

With GGAUCUUGUCGAUCUUACAAAAAAGACAAAUCUGCCCCAAAGCUUGAGAGCAUCUUCGGAUGCAGAGGCGGCCGCCUUCGGUGACGCGAUAGCGCCAACGUUCUCAACUAUGACACGCAAAACGCGUGCUCCGUUGAACGGAGUUUAUCAUG [C8G A16U A37C A73C G84A U139C] as the variant, how does the “polymerase ribozyme fitness (log ratio)” value read?
The value was at most -4.2.

Which “polymerase ribozyme fitness (log ratio)” value does the source give for GGAUCUUGUCGAUCUAACAAAAAAGACAAAUCUGCCACAAAGCUUGAGAGCAUCUUCGGAUGCAGAGGCGGCAGCCUUCGGUAGCGCGAUAGCGCCAAUGUUCUCAACUAUGACACGCAAAACGCGUGCUCCGUUGAAUGGAGUUUAUCAUG [C8G G83A C99U] here?
The value was at most -4.2.

With GGAUCUUGUCGAUCUAACAAGAAAGAAAAAUCUGCCACAAAGCUUGAGAGCAUCUUCGGAUGCAGAGGCGGCCGCCUUCGGUGGCGCGAUACCGCCAACGUUCGCAACUAUGACACGCAAAACGCGUGCUCCGUUGAAUGGAGUUUAUCUUG [C8G A21G C27A A73C G92C U104G A150U] as the variant, how does the “polymerase ribozyme fitness (log ratio)” value read?
The value was at most -4.2.

For GGAUCUUGUCGAUCUAACAAAAAAGACAGAUCUGCCACAAAGCUUGAGAUCAUCUUCGGAUGCAGAGGCGGCAGCCUUCGGUGGUGCGAUAGCGCCAACGUUCUCAACUAUGACACGCAAAACGAGUGCUCCGUUGAAUGGAGUUUAUCAUG [C8G A29G G50U C85U C125A], which “polymerase ribozyme fitness (log ratio)” value is on record?
Its value is at most -4.2.

Which “polymerase ribozyme fitness (log ratio)” value does the source give for GGAUCUUGUCGAUCUAACAAAACAGACAAUUCUGCCACAAAGCUUGAGAGCAUCUUCGAAUGCAGAGGCGGCAGCCUUCGGUGGCGCGAUAGCGACAACGUUCUCAACUAUGACACGCUAAACGCGUGCUCCGUUGAAUGCAGUUUAUCAUG [C8G A23C A30U G59A C95A A119U G141C] here?
Its value is at most -4.2.

Which “polymerase ribozyme fitness (log ratio)” value does the source give for GGAUCUUGUCGAUCUAACAAAAAAGACAAAUCUGCCACAAAGCUUGAGAGCAUCUUCGGAUGCAGAGGCCGCAGCCUUCAGUGGCGCGAUUGCGCCAACGUUCCCAACUAUGACACGCAUAACGCGUGCUCCGUUGAAUGGAGUUUAUCAUG [C8G G70C G80A A91U U104C A120U] here?
Its value is at most -4.2.

Which “polymerase ribozyme fitness (log ratio)” value does the source give for GGAUCUUGUCGAUCUAACAAAAAAGACAAAUCUACCACAAAGCUUGAGAGCAUCUUCGGAUGCAGAGGCGGCAGCCUUCGGUGGCGCGAUAGCGCCAACGUUCUCAACUAUGACACGCAAAACACGUGCUCCGUUGCAUGGAGUUUAUCAUG [C8G G34A G124A A137C] here?
The value was at most -4.2.

With GGAUCUUGUCGAUCUAACAAAAAAGACAUAUCUGCCACAAAGCUUGAGAGCAUCUUCGGAUGCAGAGGCGGCAGCCUUCGGUGGCGCGAUAGCGCCAACGUUCUCAACUAUGACACGCAAAACGCGUGCUCCGUUGAAUGGAGUUUAUCAUG [C8G A29U] as the variant, how does the “polymerase ribozyme fitness (log ratio)” value read?
Its value is -4.04.

With GGAUCUUGUCGAUCUAACAAAAAAGACAAAUCUGCCACAAAGCUUGAGAGCAUCUUCGGAUGCAGAGGCGGCAGCCUUCGGUGGCGCGAUAGCACCAACGUUCUCAACUAUGACACGCAAAACGCGUGCUCCGUUGAAUGGAGUUUAUCAUG [C8G G94A] as the variant, how does the “polymerase ribozyme fitness (log ratio)” value read?
The value was -3.64.

For GGAUCUUGUCGAUCUAACAAAAAAGACAAAACGGCCACAAAGCUUGAGAGCAGCGUCGGAUGCAGAGGCGGCAGCCUUCGGUGGCGCGAUAGCACCAACGUUCUCAACUAUGACACGCAAAACGCCUGCUCCGUUGAAUGGAGUUUAUCAUG [C8G U31A U33G U53G U55G G94A G126C], which “polymerase ribozyme fitness (log ratio)” value is on record?
Its value is at most -4.2.

For GGAUCUUGUCGAUCUAACAACAAAGACAAAUCUGCCACAAAGCUUGAGAGCAUCUUCGGAUGCAGAGGCGGCAGCCAUCGGUGGCGCGAUAACGCCAACGUUCUCAACUAUGACACGAAAAACGCGUGCUCCGUUUAAUGGAGUUUAUCAUG [C8G A21C U77A G92A C118A G136U], which “polymerase ribozyme fitness (log ratio)” value is on record?
Its value is at most -4.2.

With GGAUCUUGUCGAUCUAACAAAAAAGACAAAUCUGCCACAAAGCUUGAGAGCAUCUUCGGAUGCAGAGGCGGCAGCCUUCGGUGGCGCGAUUGCGCCAACGUUCUCAACUAUGACACGCAAAACGCGUGCUCCGUUGAAUGGUGUUUAUCAUG [C8G A91U A142U] as the variant, how does the “polymerase ribozyme fitness (log ratio)” value read?
The value was -3.92.

For GGAUCUUGUCGAUCUAACAAAAAAGACAAAUCUGCCACAAAGCUUGACAGCAUCUUCGGAUGCAGAGGCGGCAGCCUUCGGUGGCGCGAUAGCGCCAACGUUCUCAACUAUGACACGCAAAACGCGUGCUCCGUUGAAUGGAGUUUAUCAUG [C8G G48C], which “polymerase ribozyme fitness (log ratio)” value is on record?
Its value is -4.08.

With GGAUCUUGUCGAUCUAACAAAAAAGACAAAUCUGCCACAACGCUUGAGAGCAUCUUCGGAUGCAGAGGCGGCAGCCUUCGGUGGCGCGAUAGGGCCAACGUUAUCAACUAUGACACGCAUAACGCGUGCUCCGUUGAAUGGUGUUUAUCAUG [C8G A41C C93G C103A A120U A142U] as the variant, how does the “polymerase ribozyme fitness (log ratio)” value read?
The value was at most -4.2.

Which “polymerase ribozyme fitness (log ratio)” value does the source give for GGAUCUUGUAGAUCUAACAAAAAAGACAAAUCUGCCACAAAGCUUGAGAGCAUCUUCGGAUGCAGAGGCGGCAGCCUUCGGUGGCGCGAUAGUGCCAACGUUCUCUUUUAUGACACGCAAAACGCGUGCUCCGUUGAAUGGAGUUUAGCAUG [C8G C10A C93U A106U A107U C108U U148G] here?
The value was at most -4.2.

With GGAUCUUGUCGAUCUAACAAAAAAGACAAAUCUGCCACAAAGCUUGAAAGCAUUUUCGGAUGCAGAGGGGGCAGCCUUCGGUGGGGCGAUCGCGCCAACGUUCUCAACUAUGACACGCAAAACGCGUGCUCCGUUGAAUGGAGUUUAUCAUG [C8G G48A C54U C69G C85G A91C] as the variant, how does the “polymerase ribozyme fitness (log ratio)” value read?
Its value is at most -4.2.

With GGAUCUUGUCGAUCUAACAAAAAAGACAAAUCUGCCACAAAGCUUGAGAGCAUCUUCGGAUGCAGAGGCGGCAGCCUUCCGUGGCGCGAUAGCGCCAACGUUCUCAACUAUGACACGCAAAACGCGUGCUCCGUUGAAUGGAGUUUAUCAUG [C8G G80C] as the variant, how does the “polymerase ribozyme fitness (log ratio)” value read?
The value was at most -4.2.
